Source: patent US20250368745A1 (published 2025)
Numbering of substitutions follows the chain as printed. Names may count otherwise.

T1: human IL-18BP (human, UniProt O95998 31-194)
T1 construct: UniProt printed as 095998; also called hIL-18BP
T1 sequence: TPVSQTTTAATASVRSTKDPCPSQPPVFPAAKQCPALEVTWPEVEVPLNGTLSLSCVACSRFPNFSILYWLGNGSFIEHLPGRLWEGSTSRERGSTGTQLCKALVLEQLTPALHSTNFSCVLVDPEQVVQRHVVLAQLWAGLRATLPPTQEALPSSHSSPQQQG

T2: cynomolgus IL-18BP (cynomolgus monkey)
T2 construct: also called cyno IL-18BP; cyIL-18BP
T2 chain: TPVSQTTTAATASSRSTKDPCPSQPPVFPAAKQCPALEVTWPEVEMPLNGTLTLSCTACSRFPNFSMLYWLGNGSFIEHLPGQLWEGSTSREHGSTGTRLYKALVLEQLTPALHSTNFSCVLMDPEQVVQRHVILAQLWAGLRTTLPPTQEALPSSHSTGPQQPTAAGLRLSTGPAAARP

B1: SA301a HC-G97A (antibody, name in Kabat numbering, V domains shown)
VH: QVQLQESGPGLVKPSQTLSLTCTVSGYSITSDYNSHWIRQPPGKGLEWIGYIHYSGSTNYNPSLKSRVTISRDTSKNQFSLKLSSVTAADTAVYYCARNYASIYVNYFDYWGQGTLVTVSS
VL: EIVLTQSPATLSLSPGERATLSCSASSSVSYMYWYQQKPGQAPRPLIYRTSNLASGIPARFSGSGSGTDFTLTISSLEPEDFAVYYCQQYHSYPTFGGGTKVEIK
notes: IgG1 kappa
B2: SA301a HC-G97I (antibody, name in Kabat numbering, V domains shown)
VH: B1 VH with A101I
VL: B1 VL
notes: IgG1 kappa
B3: SA301a HC-G97N (antibody, name in Kabat numbering, V domains shown)
VH: B1 VH with A101N
VL: B1 VL
notes: IgG1 kappa
B4: SA301a HC-G97F (antibody, name in Kabat numbering, V domains shown)
VH: B1 VH with A101F
VL: B1 VL
notes: IgG1 kappa
B5: SA301a HC-G97D (antibody, name in Kabat numbering, V domains shown)
VH: B1 VH with A101D
VL: B1 VL
notes: IgG1 kappa
B6: SA301a HC-G97L (antibody, name in Kabat numbering, V domains shown)
VH: B1 VH with A101L
VL: B1 VL
notes: IgG1 kappa
B7: SA301a HC-G97V (antibody, name in Kabat numbering, V domains shown)
VH: B1 VH with A101V
VL: B1 VL
notes: IgG1 kappa
B8: SA301a HC-G97P (antibody, name in Kabat numbering, V domains shown)
VH: B1 VH with A101P
VL: B1 VL
notes: IgG1 kappa
B9: SA301a HC-N95G (antibody, name in Kabat numbering, V domains shown)
VH: B1 VH with N99G, A101G
VL: B1 VL
notes: IgG1 kappa
B10: SA301a HC-N95Q (antibody, name in Kabat numbering, V domains shown)
VH: B1 VH with N99Q, A101G
VL: B1 VL
notes: IgG1 kappa
B11: SA301a HC-S98G (antibody, name in Kabat numbering, V domains shown)
VH: B1 VH with A101G, S102G
VL: B1 VL
notes: IgG1 kappa
B12: SA301a HC-G97Q (antibody, name in Kabat numbering, V domains shown)
VH: B1 VH with A101Q
VL: B1 VL
notes: IgG1 kappa
B13: SA301a HC-G97E (antibody, name in Kabat numbering, V domains shown)
VH: B1 VH with A101E
VL: B1 VL
notes: IgG1 kappa
B14: SA301a HC-S98H (antibody, name in Kabat numbering, V domains shown)
VH: B1 VH with A101G, S102H
VL: B1 VL
notes: IgG1 kappa
B15: SA301a HC-G97H (antibody, name in Kabat numbering, V domains shown)
VH: B1 VH with A101H
VL: B1 VL
notes: IgG1 kappa
B16: SA301a HC-G97T (antibody, name in Kabat numbering, V domains shown)
VH: B1 VH with A101T
VL: B1 VL
notes: IgG1 kappa
B17: SA301a HC-N95R (antibody, name in Kabat numbering, V domains shown)
VH: B1 VH with N99R, A101G
VL: B1 VL
notes: IgG1 kappa
B18: SA301a HC-S98A (antibody, name in Kabat numbering, V domains shown)
VH: B1 VH with A101G, S102A
VL: B1 VL
notes: IgG1 kappa
B19: SA301a HC-G97R (antibody, name in Kabat numbering, V domains shown)
VH: B1 VH with A101R
VL: B1 VL
notes: IgG1 kappa
B20: SA301a HC-G97M (antibody, name in Kabat numbering, V domains shown)
VH: B1 VH with A101M
VL: B1 VL
notes: IgG1 kappa
B21: SA301a HC-N95A (antibody, name in Kabat numbering, V domains shown)
VH: B1 VH with N99A, A101G
VL: B1 VL
notes: IgG1 kappa
B22: SA301a HC-S98D (antibody, name in Kabat numbering, V domains shown)
VH: B1 VH with A101G, S102D
VL: B1 VL
notes: IgG1 kappa
B23: SA301a HC-G97K (antibody, name in Kabat numbering, V domains shown)
VH: B1 VH with A101K
VL: B1 VL
notes: IgG1 kappa
B24: SA301a HC-Y100G (antibody, V domains shown)
VH: B1 VH with A101G, Y104G
VL: B1 VL
B25: SA301a HC-Y100N (antibody, V domains shown)
VH: B1 VH with A101G, Y104N
VL: B1 VL
B26: SA301a HC-Y100Q (antibody, V domains shown)
VH: B1 VH with A101G, Y104Q
VL: B1 VL
B27: SA301a HC-Y100K (antibody, V domains shown)
VH: B1 VH with A101G, Y104K
VL: B1 VL
B28: SA301a HC-Y100T (antibody, V domains shown)
VH: B1 VH with A101G, Y104T
VL: B1 VL
B29: SA301a HC-Y100I (antibody, V domains shown)
VH: B1 VH with A101G, Y104I
VL: B1 VL
B30: SA301a HC-Y100S (antibody, V domains shown)
VH: B1 VH with A101G, Y104S
VL: B1 VL
B31: SA301a HC-Y100E (antibody, V domains shown)
VH: B1 VH with A101G, Y104E
VL: B1 VL
B32: SA301a HC-Y100A (antibody, V domains shown)
VH: B1 VH with A101G, Y104A
VL: B1 VL
B33: SA301a HC-Y100R (antibody, V domains shown)
VH: B1 VH with A101G, Y104R
VL: B1 VL
B34: SA301a HC-Y100L (antibody, V domains shown)
VH: B1 VH with A101G, Y104L
VL: B1 VL
B35: SA301a HC-Y100D (antibody, V domains shown)
VH: B1 VH with A101G, Y104D
VL: B1 VL
B36: SA301a HC-Y100F (antibody, V domains shown)
VH: B1 VH with A101G, Y104F
VL: B1 VL
B37: SA301a HC-Y100P (antibody, V domains shown)
VH: B1 VH with A101G, Y104P
VL: B1 VL
B38: SA301a HC-Y100M (antibody, V domains shown)
VH: B1 VH with A101G, Y104M
VL: B1 VL
B39: SA301a HC-Y100H (antibody, V domains shown)
VH: B1 VH with A101G, Y104H
VL: B1 VL
B40: SA301a HC-Y100V (antibody, V domains shown)
VH: B1 VH with A101G, Y104V
VL: B1 VL
B41: SA301a HC-V100aR (antibody, name in Kabat numbering, V domains shown)
VH: B1 VH with A101G, V105R
VL: B1 VL
notes: IgG1 kappa
B42: SA301a HC-V100aY (antibody, name in Kabat numbering, V domains shown)
VH: B1 VH with A101G, V105Y
VL: B1 VL
notes: IgG1 kappa
B43: SA301a HC-V100aQ (antibody, name in Kabat numbering, V domains shown)
VH: B1 VH with A101G, V105Q
VL: B1 VL
notes: IgG1 kappa

Biological target: T1, human IL-18BP
Assay: BLI, apparent KD

Row | Binder | Kd [nM]
1 | B1 | 0.44
2 | B2 | 7.83
3 | B3 | 5.93
4 | B4 | 6.32
5 | B5 | 0.46
6 | B6 | 3.7
7 | B7 | 4.96
8 | B8 | 1.36
9 | B9 | 0.17
10 | B10 | 5.33
11 | B11 | 2.57
12 | B12 | 7.04
13 | B13 | 11.6
14 | B14 | 6.42
15 | B15 | 1.57
16 | B16 | 0.01
17 | B17 | 0.02
18 | B18 | 2.29
19 | B19 | 25.1
20 | B20 | 0.19
21 | B21 | 46.1
22 | B22 | 0.99
23 | B23 | 1.46

Biological target: T1, human IL-18BP
Assay: BLI, apparent KD
Remark: another data set of the same source

Row | Binder | Kd [nM]
24 | B24 | 0.51
25 | B25 | 0.9
26 | B26 | 1.88
27 | B27 | 1.49
28 | B28 | 1.08
29 | B29 | 0.94
30 | B30 | 0.72
31 | B31 | 0.61
32 | B32 | 0.88
33 | B33 | 1.32
34 | B34 | 1.06
35 | B35 | 0.56
36 | B36 | 0.1
37 | B37 | 0.63
38 | B38 | 2.07
39 | B39 | 1.3
40 | B40 | 1.59
41 | B41 | 0.19
42 | B42 | 27.7
43 | B43 | 0.45

Biological target: T2, cynomolgus IL-18BP
Assay: BLI, apparent KD

Row | Binder | Kd [nM]
44 | B24 | 0.48
45 | B25 | 3.59
46 | B26 | 3.58
47 | B27 | 2.18
48 | B28 | 4.48
49 | B29 | 1.02
50 | B30 | 3.27
51 | B31 | 1.64
52 | B32 | 4.17
53 | B33 | 2.06
54 | B34 | 1.41
55 | B35 | 3.65
56 | B36 | 0.26
57 | B37 | 2.4
58 | B38 | 2.28
59 | B39 | 1.1
60 | B40 | 2.55
61 | B41 | 0.08
62 | B42 | 0.58
63 | B43 | 0.1
